Test results published in US20170037110A1 (IMMATICS BIOTECHNOLOGIES, published 2017).
Non-standard residues stand in square brackets, D forms with d. No end group written: not given here. pS = N[C@@H](COP(=O)(O)O)C(=O)O

These binders were tested against T1, HLA-A*02:01 (human) (assay: UV peptide exchange ELISA).
T1 construct: monomers captured on streptavidin plates; also called MHC class I
Outline: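 Peptide-MHC complexes formed by UV-triggered exchange of a cleavable peptide for the test peptide, with stabilised complexes indicating binding. Exchange products diluted 100 fold onto streptavidin-coated wells, 1h at 37° C.; HRP anti-β2m (2 μg/ml), TMB, absorbance at 450 nm gives exchange yield.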
Work on SLFSSLEPQIQPV yielded a peptide exchange yield of 50 to 75%. For SLLSVSHAL, the peptide exchange yield was 50 to 75%. For GLLDYPVGV, the peptide exchange yield was 50 to 75%. In the case of ALQDRVPLA, the peptide exchange yield is reported as 50 to 75%. Binder KLKPGDLVGV has a peptide exchange yield of 50 to 75%. Work on FQLDPSSGVLVTV yielded a peptide exchange yield of 50 to 75%. In the case of SLIEKLWQT, the peptide exchange yield is reported as 20 to 50%. For RLL[pS]AAENFL [RLLJAAENFL], the peptide exchange yield was 50 to 75%. ILANDGVLLAA was tested, and the peptide exchange yield was 50 to 75%. With VLPPDTDPA the peptide exchange yield was 20 to 50%. With ALAELYEDEV the peptide exchange yield was 50 to 75%. For GLLEVMVNL, the peptide exchange yield was 50 to 75%. With SLMELPRGLFL the peptide exchange yield was at least 75%. FLQGYQLHL showed a peptide exchange yield of at least 75%. FLFPHSVLV was tested, and the peptide exchange yield was 50 to 75%. In the case of SLLELDGINL, the peptide exchange yield is reported as 50 to 75%. With VLFDSESIGIYV the peptide exchange yield was 50 to 75%. YLLNDASLISV showed a peptide exchange yield of 50 to 75%. For RLLPPGAVVAV, the peptide exchange yield was 50 to 75%. Work on SLDSTLHAV yielded a peptide exchange yield of 50 to 75%. For LLLPDQPPYHL, the peptide exchange yield was 50 to 75%. VLMDRLPSLL was tested, and the peptide exchange yield was at least 75%. KMIETDILQKV was tested, and the peptide exchange yield was at least 75%. VMNDRLYAI was tested, and the peptide exchange yield was 50 to 75%. YLYNEGLSV was tested, and the peptide exchange yield was 50 to 75%. With TLCDVILMV the peptide exchange yield was 50 to 75%. Binder KLYEGIPVLL has a peptide exchange yield of at least 75%. SILDRDDIFV showed a peptide exchange yield of 50 to 75%. VLIDEVESL gave a peptide exchange yield of 50 to 75%. Work on LLPDLEFYV yielded a peptide exchange yield of at least 75%. Binder YLPAVFEEV has a peptide exchange yield of 50 to 75%. ALAEVAAMENV showed a peptide exchange yield of 50 to 75%. ALWETEVYI gave a peptide exchange yield of 50 to 75%. For KLLNKIYEA, the peptide exchange yield was at least 75%. Binder RLYSGISGLEL has a peptide exchange yield of 50 to 75%. For FLDENIGGVAV, the peptide exchange yield was 50 to 75%. Work on YAAPGGLIGV yielded a peptide exchange yield of 20 to 50%. ILLSVPLLVV showed a peptide exchange yield of 20 to 50%. ALAAPDIVPAL showed a peptide exchange yield of 50 to 75%. Binder IMLKGDNITL has a peptide exchange yield of 50 to 75%. ALLDQTKTLAESAL gave a peptide exchange yield of 50 to 75%. For KLYPQLPAEI, the peptide exchange yield was 50 to 75%. YLLPSGGSVTL was tested, and the peptide exchange yield was 20 to 50%. ILVEADGAWVV showed a peptide exchange yield of at least 75%. In the case of GLPRFGIEMV, the peptide exchange yield is reported as 50 to 75%. With ILIDSIYKV the peptide exchange yield was 50 to 75%. Binder TLAELQPPVQL has a peptide exchange yield of 50 to 75%. ALMYESEKVGV gave a peptide exchange yield of 50 to 75%. Binder IMEDIILTL has a peptide exchange yield of 50 to 75%. Binder NIFDLQIYV has a peptide exchange yield of 50 to 75%. Work on SMAELDIKL yielded a peptide exchange yield of 50 to 75%. SLLDLETLSL gave a peptide exchange yield of at least 75%. With VLLSIYPRV the peptide exchange yield was 50 to 75%. Work on VLLDVSAGQLLM yielded a peptide exchange yield of at least 75%. Work on ALLDPEVLSIFV yielded a peptide exchange yield of 50 to 75%. With ALWKQLLEL the peptide exchange yield was 50 to 75%. In the case of RLLGEEVVRVLQA, the peptide exchange yield is reported as 50 to 75%. SLFIGEKAVLL showed a peptide exchange yield of 50 to 75%. SLLPLSHLV gave a peptide exchange yield of 50 to 75%. KLLEGQVIQL was tested, and the peptide exchange yield was 50 to 75%. Work on SAFPFPVTV yielded a peptide exchange yield of 50 to 75%. Binder LLAPTPYIIGV has a peptide exchange yield of 50 to 75%. For GILARIASV, the peptide exchange yield was 50 to 75%. FLLAHGLGFLL was tested, and the peptide exchange yield was at least 75%. With YLLDDGTLVV the peptide exchange yield was at least 75%. In the case of FLIEPEHVNTV, the peptide exchange yield is reported as 20 to 50%. YLVEDIQHI was tested, and the peptide exchange yield was 50 to 75%. ALWDLAADKQTL gave a peptide exchange yield of at least 75%. Binder YLLEQIKLIEV has a peptide exchange yield of at least 75%. Work on KLYEAVPQL yielded a peptide exchange yield of 50 to 75%. SLLEQGKEPWMV showed a peptide exchange yield of 50 to 75%. Work on TLLAEALVTV yielded a peptide exchange yield of 50 to 75%. SLSELEALM gave a peptide exchange yield of 50 to 75%.
